No end group written: not given here.

Series [1] has as its target CsgA, major curlin subunit, recombinant with C-terminal His6-tag (Escherichia coli) (UniProt P28307). In words: SEC-MALS. (In gel filtration, larger molecules generally elute earlier.)
Series [2] deals with the molecule itself. The experiment in a line: crystal structure.
Series [3] deals with the molecule itself. The experiment in a line: ThT fibrillation kinetics.
Series [4] deals with the molecule itself. In words: ThT fibrillation kinetics. This is another data set of the same source.

Sequence of CsgA, major curlin subunit, recombinant with C-terminal His6-tag (P28307 21-151): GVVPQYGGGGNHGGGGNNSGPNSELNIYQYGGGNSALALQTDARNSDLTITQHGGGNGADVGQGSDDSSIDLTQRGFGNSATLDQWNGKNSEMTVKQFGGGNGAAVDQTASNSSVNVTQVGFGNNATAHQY

For orientation: stoichiometry N means a count of units in the complex or per binding partner. For the molecule “CsgA, major curlin subunit, recombinant with C-terminal His6-tag (from UniProt P28307 21-151) (natural protein)”, the stoichiometry N in series [1] was determined as 6.

On to H-IYQYGG-OH [CsgA segment 47IYQYGG52 (R1 repeat), unmodified termini], for which, in series [2], the binding result is on record as “binds”.

For Ac-VTQVGF-NH2 [CsgA segment 137VTQVGF142 (R5 repeat), capped termini], the binding result in series [3] is “binds”.

Regarding H-VTQVGF-OH [CsgA segment 137VTQVGF142 (R5 repeat), unmodified termini], in series [2], the binding result is recorded as “binds”.

On to Ac-LNIYQY-NH2 [CsgA segment 45LNIYQY50 (R1 repeat), capped termini], for which the binding result in series [3] is listed as “binds”.

As to H-TASNSS-OH [CsgA segment 129TASNSS134 (R4-R5 loop), unmodified termini], in series [2], the binding result was “binds”.

Consider H-LNIYQY-OH [CsgA segment 45LNIYQY50 (R1 repeat), unmodified termini], for which the binding result in series [2] is “binds”.

VTQVGF-NH2 [CsgA segment 137VTQVGF142 (R5 repeat), capped at the C-terminus]: in series [4], the binding result is on record as “binds”.

Turning to LNIYQY-NH2 [CsgA segment 45LNIYQY50 (R1 repeat), capped at the C-terminus], in series [4], the binding result is reported as “binds”.

In the case of Ac-IYQYGG-NH2 [CsgA segment 47IYQYGG52 (R1 repeat), capped termini], the binding result in series [3] is on record as “binds”.
